Measurements: patent CN112500487A (HUADAO SHANGHAI BIOMEDICAL CO LTD, dated 2021)

Target: T1, Human IL-3Rα/CD123蛋白 (human, UniProt P26951 19-305, limits assumed)
T1 construct: Soluble antigen in the mobile phase of the SPR run
T1 sequence (looked up): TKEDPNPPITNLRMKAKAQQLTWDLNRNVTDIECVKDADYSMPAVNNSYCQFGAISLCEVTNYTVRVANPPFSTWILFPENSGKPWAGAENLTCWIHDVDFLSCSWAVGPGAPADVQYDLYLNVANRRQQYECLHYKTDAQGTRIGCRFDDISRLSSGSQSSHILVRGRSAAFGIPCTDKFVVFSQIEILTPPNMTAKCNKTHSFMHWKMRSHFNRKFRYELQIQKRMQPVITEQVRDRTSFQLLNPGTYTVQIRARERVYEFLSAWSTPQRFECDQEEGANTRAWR
Test: SPR (Biacore), antibody immobilised on chip, antigen in mobile phase

Kd: 480 pM | koff: 0.000174 s⁻¹ | kon: 362000 M⁻¹ s⁻¹
B1: CD123-89 VHH-mIgG2a Fc抗体 (anti-CD123 VHH CD123-89 with mouse Fc tag) (Fc fusion)
chain: EVQLVESGGDSVQTGGSLRLSCLASGYIGSGYCLAWFRQAPGKERKKVANIVIGVGRPYYADSVKGRFTISQDNAKNTLYLQMNSLKPEDTAMYYCAASKFGSWSCGDYNYWGQGTQVTVSS
notes: Expressed in 293E cells from C-4pCP.Stuffer VHH-mCg2a-FC and purified on MabSelect SuRe; also called 抗CD123 VHH抗体CD123-89; 重组CD123-89抗体; not shown: mouse IgG2a Fc tag from vector C-4pCP.Stuffer VHH-mCg2a-FC
